One experiment has as its target T1, KIR3DL1 (UniProt P43629 22-444, limits assumed).
T1 construct: whole, on cells
Kind of experiment: HEK293 cell microarray.

The target in the next experiment is T2, KIR3DL2 (UniProt P43630 22-455, limits assumed).
T2 construct: whole, on cells
The experiment is described as follows: HEK293 cell microarray.

A further experiment deals with T3, KIR2DL1 (UniProt P43626 22-348, limits assumed).
T3 construct: whole, on cells
The experiment is described as follows: HEK293 cell microarray.

The next experiment addresses T4, KIR2DL2 (UniProt P43627 22-348, limits assumed).
T4 construct: whole, on cells
Kind of experiment: HEK293 cell microarray.

The next experiment addresses T5, KIR2DL3 (UniProt P43628 22-341, limits assumed).
T5 construct: whole, on cells
The experiment is described as follows: HEK293 cell microarray.

The next experiment addresses T6, KIR2DL4 (UniProt Q99706 22-377, limits assumed).
T6 construct: whole, on cells
Kind of experiment: HEK293 cell microarray.

The target of another experiment is T7, KIR2DS1 (UniProt Q14954 22-304, limits assumed).
T7 construct: whole, on cells
The experiment is described as follows: HEK293 cell microarray.

The next experiment deals with T8, KIR2DS2 (UniProt P43631 22-304, limits assumed).
T8 construct: whole, on cells
Kind of experiment: HEK293 cell microarray.

The target of a further experiment is T9, KIR2DS3 (UniProt Q14952 22-304, limits assumed).
T9 construct: whole, on cells
The experiment is described as follows: HEK293 cell microarray.

Another experiment has as its target T10, KIR2DS5 (UniProt Q14953 22-304, limits assumed).
T10 construct: whole, on cells
The experiment is described as follows: HEK293 cell microarray.

Another experiment deals with T11, KIR3DS1 (UniProt Q14943 22-382, limits assumed).
T11 construct: whole, on cells
The experiment is described as follows: HEK293 cell microarray.

Another experiment concerns the target T12, KIR2DL5A (UniProt Q8N109 22-375, limits assumed).
T12 construct: whole, on cells
Kind of experiment: HEK293 cell microarray, hybridoma supernatant. Here is the method:
In Table 4, replicate microarray slides expressing the KIR family cDNA panel (as in FIG. 1A, FIG. 2B, and FIG. 2C) were fixed and blocked with buffer containing PBS/0.5% BSA and incubated for 1 hour at room temperature with individual KIR3DL3 mAb hybridoma supernatants at 1:5, 1:25 and 1:250 dilutions in PBS/0.1% BSA. Cell arrays were washed with PBS and incubated for 1 hour at room temperature in PBS/0.1% BSA containing AF647-conjugated goat anti-mouse IgG (H+L) (Life Technologies, A21235). Slides were washed with PBS, dried, and imaged for ZsGreen1 and AF647 fluorescence.

T3 sequence (P43626 22-348 limits assumed): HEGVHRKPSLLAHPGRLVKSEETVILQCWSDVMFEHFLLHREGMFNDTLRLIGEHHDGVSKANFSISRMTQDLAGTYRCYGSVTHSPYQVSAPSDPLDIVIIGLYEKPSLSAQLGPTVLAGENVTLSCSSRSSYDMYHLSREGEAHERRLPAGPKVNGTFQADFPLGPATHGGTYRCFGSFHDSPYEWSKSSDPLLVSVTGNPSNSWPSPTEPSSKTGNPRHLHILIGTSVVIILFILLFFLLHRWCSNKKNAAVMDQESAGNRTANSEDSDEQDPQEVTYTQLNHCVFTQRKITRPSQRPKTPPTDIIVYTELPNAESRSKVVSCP
T11 sequence (Q14943 22-382 limits assumed): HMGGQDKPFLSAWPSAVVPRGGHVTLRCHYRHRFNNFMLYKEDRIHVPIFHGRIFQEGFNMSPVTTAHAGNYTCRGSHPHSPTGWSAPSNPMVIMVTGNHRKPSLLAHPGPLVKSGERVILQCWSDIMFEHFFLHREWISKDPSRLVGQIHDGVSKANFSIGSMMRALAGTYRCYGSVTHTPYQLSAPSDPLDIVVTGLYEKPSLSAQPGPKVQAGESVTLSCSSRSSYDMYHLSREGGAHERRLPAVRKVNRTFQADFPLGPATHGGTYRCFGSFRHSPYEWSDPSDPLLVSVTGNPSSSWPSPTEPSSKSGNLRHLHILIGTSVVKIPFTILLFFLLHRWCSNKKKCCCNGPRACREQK
T2 sequence (P43630 22-455 limits assumed): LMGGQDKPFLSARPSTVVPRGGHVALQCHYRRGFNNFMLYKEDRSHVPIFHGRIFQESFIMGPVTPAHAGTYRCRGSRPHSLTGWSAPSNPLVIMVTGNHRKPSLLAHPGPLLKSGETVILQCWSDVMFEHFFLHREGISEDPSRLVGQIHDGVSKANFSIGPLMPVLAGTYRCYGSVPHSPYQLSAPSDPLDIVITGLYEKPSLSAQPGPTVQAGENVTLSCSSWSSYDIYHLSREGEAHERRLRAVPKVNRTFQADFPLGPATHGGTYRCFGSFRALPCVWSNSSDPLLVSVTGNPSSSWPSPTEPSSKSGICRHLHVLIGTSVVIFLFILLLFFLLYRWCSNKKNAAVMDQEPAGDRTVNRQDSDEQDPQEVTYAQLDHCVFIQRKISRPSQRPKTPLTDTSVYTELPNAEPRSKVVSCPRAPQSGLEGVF
T12 sequence (Q8N109 22-375 limits assumed): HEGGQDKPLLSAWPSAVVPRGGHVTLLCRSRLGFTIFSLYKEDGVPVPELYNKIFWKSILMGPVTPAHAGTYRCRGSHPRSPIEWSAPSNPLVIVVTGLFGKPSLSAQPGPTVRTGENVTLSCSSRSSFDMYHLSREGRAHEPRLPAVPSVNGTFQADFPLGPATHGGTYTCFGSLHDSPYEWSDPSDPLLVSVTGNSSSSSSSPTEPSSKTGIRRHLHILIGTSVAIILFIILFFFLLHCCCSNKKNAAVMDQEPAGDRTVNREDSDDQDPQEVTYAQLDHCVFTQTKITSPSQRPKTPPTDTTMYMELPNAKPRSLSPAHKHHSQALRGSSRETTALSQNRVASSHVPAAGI
T10 sequence (Q14953 22-304 limits assumed): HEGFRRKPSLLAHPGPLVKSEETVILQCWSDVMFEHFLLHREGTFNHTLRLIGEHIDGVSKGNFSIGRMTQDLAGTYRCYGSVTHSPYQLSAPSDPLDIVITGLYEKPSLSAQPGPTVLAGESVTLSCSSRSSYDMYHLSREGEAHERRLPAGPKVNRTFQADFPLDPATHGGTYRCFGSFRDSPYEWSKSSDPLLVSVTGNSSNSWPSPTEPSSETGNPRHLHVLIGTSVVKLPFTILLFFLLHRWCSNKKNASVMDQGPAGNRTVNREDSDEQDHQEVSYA
T9 sequence (Q14952 22-304 limits assumed): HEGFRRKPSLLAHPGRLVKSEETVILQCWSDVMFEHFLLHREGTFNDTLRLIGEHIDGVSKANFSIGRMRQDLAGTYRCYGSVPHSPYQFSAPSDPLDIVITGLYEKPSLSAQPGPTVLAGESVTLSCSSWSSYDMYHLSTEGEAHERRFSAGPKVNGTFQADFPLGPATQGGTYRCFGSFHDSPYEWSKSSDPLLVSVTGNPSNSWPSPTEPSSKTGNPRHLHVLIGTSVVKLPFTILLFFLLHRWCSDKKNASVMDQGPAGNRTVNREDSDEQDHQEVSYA
T5 sequence (P43628 22-341 limits assumed): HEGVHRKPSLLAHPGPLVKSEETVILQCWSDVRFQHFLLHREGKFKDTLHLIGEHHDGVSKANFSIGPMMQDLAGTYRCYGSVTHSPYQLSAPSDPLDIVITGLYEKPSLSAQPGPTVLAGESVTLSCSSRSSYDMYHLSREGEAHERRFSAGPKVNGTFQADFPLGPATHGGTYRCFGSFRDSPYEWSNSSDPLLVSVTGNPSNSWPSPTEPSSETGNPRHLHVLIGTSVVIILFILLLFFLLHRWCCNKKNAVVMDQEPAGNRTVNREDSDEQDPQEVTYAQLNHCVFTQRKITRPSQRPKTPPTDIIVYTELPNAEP
T8 sequence (P43631 22-304 limits assumed): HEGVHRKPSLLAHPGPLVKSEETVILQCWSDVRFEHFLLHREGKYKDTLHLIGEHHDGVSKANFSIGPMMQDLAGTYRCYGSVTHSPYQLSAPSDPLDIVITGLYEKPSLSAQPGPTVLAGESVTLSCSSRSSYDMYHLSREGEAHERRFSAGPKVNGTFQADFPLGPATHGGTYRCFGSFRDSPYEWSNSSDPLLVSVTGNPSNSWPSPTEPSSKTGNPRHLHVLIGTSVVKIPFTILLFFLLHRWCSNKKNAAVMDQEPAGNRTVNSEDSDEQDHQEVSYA
T4 sequence (P43627 22-348 limits assumed): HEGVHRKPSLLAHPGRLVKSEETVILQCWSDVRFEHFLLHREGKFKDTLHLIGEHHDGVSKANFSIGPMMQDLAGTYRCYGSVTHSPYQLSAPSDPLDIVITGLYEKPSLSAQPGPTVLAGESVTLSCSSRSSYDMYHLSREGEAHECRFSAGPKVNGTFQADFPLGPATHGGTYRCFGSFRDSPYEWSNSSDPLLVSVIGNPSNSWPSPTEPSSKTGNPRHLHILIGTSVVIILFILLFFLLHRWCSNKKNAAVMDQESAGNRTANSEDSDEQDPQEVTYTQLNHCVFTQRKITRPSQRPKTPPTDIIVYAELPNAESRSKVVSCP
T6 sequence (Q99706 22-377 limits assumed): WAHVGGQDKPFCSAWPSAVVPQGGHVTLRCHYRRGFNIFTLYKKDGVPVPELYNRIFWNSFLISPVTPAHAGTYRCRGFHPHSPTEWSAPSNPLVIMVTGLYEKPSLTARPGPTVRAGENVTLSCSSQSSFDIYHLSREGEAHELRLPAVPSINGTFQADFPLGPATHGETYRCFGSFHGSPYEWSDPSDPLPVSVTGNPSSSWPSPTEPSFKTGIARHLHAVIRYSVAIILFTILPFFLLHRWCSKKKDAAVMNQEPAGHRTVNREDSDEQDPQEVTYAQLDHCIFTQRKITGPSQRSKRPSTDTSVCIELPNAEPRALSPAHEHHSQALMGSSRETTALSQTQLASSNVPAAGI
T7 sequence (Q14954 22-304 limits assumed): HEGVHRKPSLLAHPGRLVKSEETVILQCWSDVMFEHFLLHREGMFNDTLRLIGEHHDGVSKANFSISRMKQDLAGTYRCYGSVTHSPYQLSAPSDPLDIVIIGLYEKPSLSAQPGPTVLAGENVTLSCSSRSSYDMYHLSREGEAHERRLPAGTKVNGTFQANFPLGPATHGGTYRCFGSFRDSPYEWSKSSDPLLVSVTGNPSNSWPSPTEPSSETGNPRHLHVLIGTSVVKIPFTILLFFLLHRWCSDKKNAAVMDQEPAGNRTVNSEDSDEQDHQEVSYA
T1 sequence (P43629 22-444 limits assumed): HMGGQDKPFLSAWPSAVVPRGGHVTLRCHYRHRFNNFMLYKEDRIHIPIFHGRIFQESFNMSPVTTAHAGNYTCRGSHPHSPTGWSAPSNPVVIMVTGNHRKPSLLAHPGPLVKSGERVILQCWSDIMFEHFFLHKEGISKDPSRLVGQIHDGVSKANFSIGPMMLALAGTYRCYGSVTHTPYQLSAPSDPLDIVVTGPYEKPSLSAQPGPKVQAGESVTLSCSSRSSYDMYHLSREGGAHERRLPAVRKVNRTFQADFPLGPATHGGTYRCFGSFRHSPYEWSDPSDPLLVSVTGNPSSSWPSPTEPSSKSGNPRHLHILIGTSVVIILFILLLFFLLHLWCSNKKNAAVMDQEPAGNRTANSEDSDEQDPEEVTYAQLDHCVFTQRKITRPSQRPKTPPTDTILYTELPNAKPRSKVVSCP

B1: KIR3DL3 mAb 574.2.8C2.12.3.10 (antibody, IgG2a, V domains shown)
VH: KVQLQQSGAELVRPGTSVKVSCKASGYAFTNYLIEWVKQRPGQGLEWIGVINPGSGGTNDNEKFRDKATLTADKSSSTAYMQLSSLTSDDSAVYFCARGNYYGTTDWYFDVWGAGTTVTVSS
VL: QIVLTQSPAIMSASLGERVTMTCTASASVSSSSLHWYQQKPGSPPKFWIYSTTNLASGVPTRFSGSGSGTSYSLTISNMEAEDAATYYCHQYHRSPPTFGGGTKLEIK
notes: Mouse hybridoma antibody, IgG2a; only variable domains given; also called AVS-3706
As for B1, the binding result with KIR3DL1 was “no binding (tested: supernatant 1:5, 1:25, 1:250)”; in the experiment with KIR3DL2, “no binding (tested: supernatant 1:5, 1:25, 1:250)”; with KIR2DL1 it was “no binding (tested: supernatant 1:5, 1:25, 1:250)”; with KIR2DL2, “no binding (tested: supernatant 1:5, 1:25, 1:250)”; in the experiment with KIR2DL3, “no binding (tested: supernatant 1:5, 1:25, 1:250)”; with KIR2DL4, “no binding (tested: supernatant 1:5, 1:25, 1:250)”. For the same molecule, the binding result with KIR2DS1 is “no binding (tested: supernatant 1:5, 1:25, 1:250)”; in the experiment with KIR2DS2 it was “no binding (tested: supernatant 1:5, 1:25, 1:250)”; with KIR2DS3, “no binding (tested: supernatant 1:5, 1:25, 1:250)”; in the experiment with KIR2DS5, “no binding (tested: supernatant 1:5, 1:25, 1:250)”; with KIR3DS1, “no binding (tested: supernatant 1:5, 1:25, 1:250)”; with KIR2DL5A, “binds”.

For the origin of these results see patent US20250388702A1 (Dana-Farber, published 2025).
